Laboratory results reported in patent US20200317779A1.

Legend:
[1] = molecular target: recombinant human CD3ε/δ heterodimer (human) (UniProt P07766); experiment: ELISA, coated CD3ε/δ
[2] = molecular target: recombinant cynomolgus monkey CD3ε/δ heterodimer (cynomolgus monkey) (UniProt Q95LI5); experiment: ELISA, coated CD3ε/δ
recombinant cynomolgus monkey CD3ε/δ heterodimer (cynomolgus monkey), sequence (Q95LI5 22-117, stated change not applied, chain 1 of 2): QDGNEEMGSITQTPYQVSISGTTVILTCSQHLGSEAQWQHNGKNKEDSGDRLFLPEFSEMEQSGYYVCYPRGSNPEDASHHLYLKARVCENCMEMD
recombinant cynomolgus monkey CD3ε/δ heterodimer (cynomolgus monkey), sequence (Q95LI8 22-105, stated change not applied, chain 2 of 2, further chain): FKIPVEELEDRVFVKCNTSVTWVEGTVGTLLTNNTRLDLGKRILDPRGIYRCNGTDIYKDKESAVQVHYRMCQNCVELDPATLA

recombinant human CD3ε/δ heterodimer (human), sequence (P07766 23-126, stated change not applied, chain 1 of 2): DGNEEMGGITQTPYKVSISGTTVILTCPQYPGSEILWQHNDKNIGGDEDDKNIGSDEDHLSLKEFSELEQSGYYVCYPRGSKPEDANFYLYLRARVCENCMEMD
recombinant human CD3ε/δ heterodimer (human), sequence (P04234 22-105, stated change not applied, chain 2 of 2, further chain): as the sequence (Q95LI8 22-105, stated change not applied, chain 2 of 2, further chain) above, with V5I, K15N, V20I, T32S, N33D, N34I, A64T, N74S, L83V counted along it

Absorbance (450 nm) [1] | Absorbance (450 nm) [2] | Binder
0.077 | 0.068 | H04 (antibody, human IgG1, lambda, L234A L235A, V domains shown) VH: EVQLVESGGGLVQPGGSLKLSCAASGFTFNTYAMNWVRQASGKGLEWVARIRSKYNNYATYYADSVKDRFTISRDDSQSTLYLQMNSLKTEDTAVYYCVRHGNFGNSYVSWFAYWGQGTLVTVSS VL: QAVVTQEPSLTVSPGGTVTLTCRSSTGAVTTSNYANWFQQKPGQAPRTLIGGTNKRAPWTPARFSGSLLGDKAALTLSGAQPEDEAEYYCALWYSNLWVFGGGTKLTVLG
0.088 | 0.077 | H10 (antibody, human IgG1, lambda, L234A L235A, V domains shown) VH: EVQLVESGGGLVQPGGSLKLSCAASGFTFNTYAMNWVRQASGKGLEWVARIRSKYNNYATYYADSVKDRFTISRDDSQSTLYLQMNSLKTEDTAVYYCVRHGNFGNSYVSWFAYWGQGTLVTVSS VL: QAVVTQEPSLTVSPGGTVTLTCRSSTGAVTTSNYANWVQQKPGQAPRTLIYGTNKRAPWTPARFSGSLLGDKAALTLSGAQPEDEAEYYCALWYSNLWVFGGGTKLTVLG
0.087 | 0.059 | B04 (antibody, human IgG1, lambda, L234A L235A, V domains shown) VH: EVQLVESGGGLVQPGGSLKLSCAASGFTFNTYAMNWVRQASGKGLEWVGRIRSKYNNYATYYADSVKDRFTISRDDSKNTLYLQMNSLKTEDTAVYYCVRHGNFGNSYVSWFAYWGQGTLVTVSS VL: QAVVTQEPSLTVSPGGTVTLTCRSSTGAVTTSNYANWFQQKPGQAPRTLIGGTNKRAPWTPARFSGSLLGDKAALTLSGAQPEDEAEYYCALWYSNLWVFGGGTKLTVLG
0.096 | 0.094 | H14 (antibody, human IgG1, lambda, L234A L235A, V domains shown) VH: EVQLVESGGGLVQPGGSLKLSCAASGFTFNTYAMNWVRQASGKGLEWVARIRSKYNNYATYYADSVKDRFTISRDDSQSTLYLQMNSLKTEDTAVYYCVRHGNFGNSYVSWFAYWGQGTLVTVSS VL: QAVVTQEPSLTVSPGGTVTLTCRSSTGAVTTSNYANWVQQKPGQAPRGLIYGTNKRAPWTPARFSGSLLGDKAALTLSGAQPEDEAEYYCALWYSNLWVFGGGTKLTVLG
0.099 | 0.083 | H12 (antibody, human IgG1, lambda, L234A L235A, V domains shown) VH: EVQLVESGGGLVQPGGSLKLSCAASGFTFNTYAMNWVRQASGKGLEWVARIRSKYNNYATYYADSVKDRFTISRDDSQSTLYLQMNSLKTEDTAVYYCVRHGNFGNSYVSWFAYWGQGTLVTVSS VL: QAVVTQEPSLTVSPGGTVTLTCRSSTGAVTTSNYANWVQQKPGQAPRTLIGGTNKRAPWTPARFSGSLLGDKAALTLSGAQPEDEAEYYCALWYSNLWVFGGGTKLTVLG
0.125 | 0.113 | A14 (antibody, human IgG1, lambda, L234A L235A, V domains shown) VH: EVQLVESGGGLVQPGGSLKLSCAASGFTFNTYAMNWVRQASGKGLEWVGRIRSKYNNYATYYADSVKDRFTISRDDSKNTAYLQMNSLKTEDTAVYYCVRHGNFGNSYVSWFAYWGQGTLVTVSS VL: QAVVTQEPSLTVSPGGTVTLTCRSSTGAVTTSNYANWVQQKPGQAPRGLIYGTNKRAPWTPARFSGSLLGDKAALTLSGAQPEDEAEYYCALWYSNLWVFGGGTKLTVLG
0.172 | 0.154 | A13 (antibody, human IgG1, lambda, L234A L235A, V domains shown) VH: EVQLVESGGGLVQPGGSLKLSCAASGFTFNTYAMNWVRQASGKGLEWVGRIRSKYNNYATYYADSVKDRFTISRDDSKNTAYLQMNSLKTEDTAVYYCVRHGNFGNSYVSWFAYWGQGTLVTVSS VL: QAVVTQEPSLTVSPGGTVTLTCRSSTGAVTTSNYANWVQQKPGQAPRGLIYGTNKRAPWTPARFSGSLLGGKAALTLSGAQPEDEAEYYCALWYSNLWVFGGGTKLTVLG
0.175 | 0.196 | H13 (antibody, human IgG1, lambda, L234A L235A, V domains shown) VH: EVQLVESGGGLVQPGGSLKLSCAASGFTFNTYAMNWVRQASGKGLEWVARIRSKYNNYATYYADSVKDRFTISRDDSQSTLYLQMNSLKTEDTAVYYCVRHGNFGNSYVSWFAYWGQGTLVTVSS VL: QAVVTQEPSLTVSPGGTVTLTCRSSTGAVTTSNYANWVQQKPGQAPRGLIYGTNKRAPWTPARFSGSLLGGKAALTLSGAQPEDEAEYYCALWYSNLWVFGGGTKLTVLG
0.098 | 0.068 | A02 (antibody, human IgG1, lambda, L234A L235A, V domains shown) VH: EVQLVESGGGLVQPGGSLKLSCAASGFTFNTYAMNWVRQASGKGLEWVGRIRSKYNNYATYYADSVKDRFTISRDDSKNTAYLQMNSLKTEDTAVYYCVRHGNFGNSYVSWFAYWGQGTLVTVSS VL: QAVVTQEPSLTVSPGGTVTLTCRSSTGAVTTSNYANWFQQKPGQAPRTLIYGTNKRAPWTPARFSGSLLGDKAALTLSGAQPEDEAEYYCALWYSNLWVFGGGTKLTVLG
0.11 | 0.09 | H07 (antibody, human IgG1, lambda, L234A L235A, V domains shown) VH: EVQLVESGGGLVQPGGSLKLSCAASGFTFNTYAMNWVRQASGKGLEWVARIRSKYNNYATYYADSVKDRFTISRDDSQSTLYLQMNSLKTEDTAVYYCVRHGNFGNSYVSWFAYWGQGTLVTVSS VL: QAVVTQEPSLTVSPGGTVTLTCRSSTGAVTTSNYANWFQQKPGQAPRGLIGGTNKRAPWTPARFSGSLLGGKAALTLSGAQPEDEAEYYCALWYSNLWVFGGGTKLTVLG
0.078 | 0.061 | H05 (antibody, human IgG1, lambda, L234A L235A, V domains shown) VH: EVQLVESGGGLVQPGGSLKLSCAASGFTFNTYAMNWVRQASGKGLEWVARIRSKYNNYATYYADSVKDRFTISRDDSQSTLYLQMNSLKTEDTAVYYCVRHGNFGNSYVSWFAYWGQGTLVTVSS VL: QAVVTQEPSLTVSPGGTVTLTCRSSTGAVTTSNYANWFQQKPGQAPRGLIYGTNKRAPWTPARFSGSLLGGKAALTLSGAQPEDEAEYYCALWYSNLWVFGGGTKLTVLG
0.086 | 0.072 | B02 (antibody, human IgG1, lambda, L234A L235A, V domains shown) VH: EVQLVESGGGLVQPGGSLKLSCAASGFTFNTYAMNWVRQASGKGLEWVGRIRSKYNNYATYYADSVKDRFTISRDDSKNTLYLQMNSLKTEDTAVYYCVRHGNFGNSYVSWFAYWGQGTLVTVSS VL: QAVVTQEPSLTVSPGGTVTLTCRSSTGAVTTSNYANWFQQKPGQAPRTLIYGTNKRAPWTPARFSGSLLGDKAALTLSGAQPEDEAEYYCALWYSNLWVFGGGTKLTVLG
0.102 | 0.1 | B05 (antibody, human IgG1, lambda, L234A L235A, V domains shown) VH: EVQLVESGGGLVQPGGSLKLSCAASGFTFNTYAMNWVRQASGKGLEWVGRIRSKYNNYATYYADSVKDRFTISRDDSKNTLYLQMNSLKTEDTAVYYCVRHGNFGNSYVSWFAYWGQGTLVTVSS VL: QAVVTQEPSLTVSPGGTVTLTCRSSTGAVTTSNYANWFQQKPGQAPRGLIYGTNKRAPWTPARFSGSLLGGKAALTLSGAQPEDEAEYYCALWYSNLWVFGGGTKLTVLG
0.122 | 0.142 | H11 (antibody, human IgG1, lambda, L234A L235A, V domains shown) VH: EVQLVESGGGLVQPGGSLKLSCAASGFTFNTYAMNWVRQASGKGLEWVARIRSKYNNYATYYADSVKDRFTISRDDSQSTLYLQMNSLKTEDTAVYYCVRHGNFGNSYVSWFAYWGQGTLVTVSS VL: QAVVTQEPSLTVSPGGTVTLTCRSSTGAVTTSNYANWVQQKPGQAPRTLIGGTNKRAPWTPARFSGSLLGGKAALTLSGAQPEDEAEYYCALWYSNLWVFGGGTKLTVLG
0.097 | 0.068 | A12 (antibody, human IgG1, lambda, L234A L235A, V domains shown) VH: EVQLVESGGGLVQPGGSLKLSCAASGFTFNTYAMNWVRQASGKGLEWVGRIRSKYNNYATYYADSVKDRFTISRDDSKNTAYLQMNSLKTEDTAVYYCVRHGNFGNSYVSWFAYWGQGTLVTVSS VL: QAVVTQEPSLTVSPGGTVTLTCRSSTGAVTTSNYANWVQQKPGQAPRTLIGGTNKRAPWTPARFSGSLLGDKAALTLSGAQPEDEAEYYCALWYSNLWVFGGGTKLTVLG
0.097 | 0.071 | B01 (antibody, human IgG1, lambda, L234A L235A, V domains shown) VH: EVQLVESGGGLVQPGGSLKLSCAASGFTFNTYAMNWVRQASGKGLEWVGRIRSKYNNYATYYADSVKDRFTISRDDSKNTLYLQMNSLKTEDTAVYYCVRHGNFGNSYVSWFAYWGQGTLVTVSS VL: QAVVTQEPSLTVSPGGTVTLTCRSSTGAVTTSNYANWFQQKPGQAPRTLIYGTNKRAPWTPARFSGSLLGGKAALTLSGAQPEDEAEYYCALWYSNLWVFGGGTKLTVLG
0.118 | 0.136 | H08 (antibody, human IgG1, lambda, L234A L235A, V domains shown) VH: EVQLVESGGGLVQPGGSLKLSCAASGFTFNTYAMNWVRQASGKGLEWVARIRSKYNNYATYYADSVKDRFTISRDDSQSTLYLQMNSLKTEDTAVYYCVRHGNFGNSYVSWFAYWGQGTLVTVSS VL: QAVVTQEPSLTVSPGGTVTLTCRSSTGAVTTSNYANWFQQKPGQAPRGLIGGTNKRAPWTPARFSGSLLGDKAALTLSGAQPEDEAEYYCALWYSNLWVFGGGTKLTVLG
0.141 | 0.113 | H09 (antibody, human IgG1, lambda, L234A L235A, V domains shown) VH: EVQLVESGGGLVQPGGSLKLSCAASGFTFNTYAMNWVRQASGKGLEWVARIRSKYNNYATYYADSVKDRFTISRDDSQSTLYLQMNSLKTEDTAVYYCVRHGNFGNSYVSWFAYWGQGTLVTVSS VL: QAVVTQEPSLTVSPGGTVTLTCRSSTGAVTTSNYANWVQQKPGQAPRTLIYGTNKRAPWTPARFSGSLLGGKAALTLSGAQPEDEAEYYCALWYSNLWVFGGGTKLTVLG
0.134 | 0.101 | H06 (antibody, human IgG1, lambda, L234A L235A, V domains shown) VH: EVQLVESGGGLVQPGGSLKLSCAASGFTFNTYAMNWVRQASGKGLEWVARIRSKYNNYATYYADSVKDRFTISRDDSQSTLYLQMNSLKTEDTAVYYCVRHGNFGNSYVSWFAYWGQGTLVTVSS VL: QAVVTQEPSLTVSPGGTVTLTCRSSTGAVTTSNYANWFQQKPGQAPRGLIYGTNKRAPWTPARFSGSLLGDKAALTLSGAQPEDEAEYYCALWYSNLWVFGGGTKLTVLG
0.126 | 0.091 | B03 (antibody, human IgG1, lambda, L234A L235A, V domains shown) VH: EVQLVESGGGLVQPGGSLKLSCAASGFTFNTYAMNWVRQASGKGLEWVGRIRSKYNNYATYYADSVKDRFTISRDDSKNTLYLQMNSLKTEDTAVYYCVRHGNFGNSYVSWFAYWGQGTLVTVSS VL: QAVVTQEPSLTVSPGGTVTLTCRSSTGAVTTSNYANWFQQKPGQAPRTLIGGTNKRAPWTPARFSGSLLGGKAALTLSGAQPEDEAEYYCALWYSNLWVFGGGTKLTVLG
